Data set [1] concerns the target T1, E. coli RNA polymerase β′ subunit (E. coli, UniProt P0A8T7 1-1407).
T1 construct: RNA polymerase β′ subunit, E. coli; Stood in the structures as a subunit of RNAP core; also called RNAP β′ subunit; source: E. coli BL21(DE3) with plasmid pIA900, purified as part of RNAP core enzyme
Briefly: cryo-EM structure; 0.8 uM E. coli RNAP incubated with 0.8 uM gp55, 0.8 uM gp33 and 0.8 uM gp45 homotrimer 10 min on ice, then with nucleic acid scaffold, gp44/gp62 complex, gp32 and dATP 20 min at 30 °C in transcription buffer; 3D classification gave RPo-gp55 (3.6 Å) and TAC-gp45 (4.5 Å); promoter DNA present. Particulars: both partners purified.

Data set [2] addresses T2, E. coli RNA polymerase β subunit (E. coli, UniProt P0A8V2 1-1342).
T2 construct: RNA polymerase β subunit, E. coli; holds the β flap with the flap tip helix (FTH); Stood in the structures as a subunit of RNAP core; also called RNAP β subunit; source: E. coli BL21(DE3) with plasmid pIA900, purified as part of RNAP core enzyme
The description is as above. To be noted: both partners purified.

In data set [3] the target is E. coli RNA polymerase core;gp55 H154X (C-terminal region truncated) (Escherichia coli;bacteriophage T4, UniProt P0A7Z4;P0A8V2;P0A8T7;P0A800;P04524 1-329;1-1342;1-1407;1-91;1-153, |). Briefly: EMSA; heparin 0.1 mg/ml challenge; forms RPo as effectively as full-length gp55; EMSA: 0.4 uM gp55, 0.2 uM RNAP, 0.2 uM DNA in 10 mM HEPES pH 7.5, 50 mM KCl, 5% glycerol, 0.1 mg/ml heparin; DNA 20 min at 37 C, heparin 1 min at 22 C; 5% PAGE. To be noted: protein: recombinant;recombinant; tags: beta' C-terminal His tag (stated for pull-down);none stated; chain copies: 2;1;1;1;1; label: none (gel stained); blunt.

B1: bacteriophage T4 gp33 (coactivator) (natural protein)
chain: MTQFSLNDIRPVDETGLSEKELSIKKEKDEIAKLLDRQENGFIIEKMVEEFGMSYLEATTAFLEENSIPETQFAKFIPSGIIEKIQSEAIDENLLRPSVVRCEKTNTLDFLL
notes: source: E. coli BL21(DE3), pET28a-NH-gp33, purified (Ni-NTA, Mono Q, Superdex 200)
With B1, the binding result in data set [1] and in data set [2] was “binds” each time.

B2: T4 late promoter EMSA scaffold (dsDNA)
DNA 1: CTAATAAAGAGCTCAGCACTATTACTGAGAGTATAAATACTCCTGATACTGAAGCAGCCGGACT
DNA 2: AGTCCGGCTGCTTCAGTATCAGGAGTATTTATACTCTCAGTAATAGTGCTGAGCTCTTTATTAG
Consider B2, for which the binding result in data set [3] is listed as “binds”.

B3: bacteriophage T4 gp55 (promoter specificity factor) (natural protein, UniProt P04524 1-185, looked up)
chain: MSETKPKYNYVNNKELLQAIIDWKTELANNKDPNKVVRQNDTIGLAIMLIAEGLSKRFNFSGYTQSWKQEMIADGIEASIKGLHNFDETKYKNPHAYITQACFNAFVQRIKKERKEVAKKYSYFVHNVYDSRDDDMVALVDETFIQDIYDKMTHYEESTYRTPGAEKKSVVDDSPSLDFLYEAND
notes: also called full-length gp55; wild-type protein
For B3, the binding result in data set [1] is “binds”.

The values are drawn from article PMC7892883, “Transcription activation by a sliding clamp” (Nature Communications, 2021).
